From the supplement of paper PMC10567573

B1: ZNF263 (parent)
chain: RTHTGEKPYKCTLCGENFSHRSNL

Variants of: B1
Assay: protein stability index of a GFP-peptide fusion (GPS, HEK-293T) (PSI 1-6); higher = more stable
Conditions: c terminus: a fixed tail appended
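Also: lentivirally expressed fusions sorted by FACS into six bins by GFP to DsRed ratio, PSI derived from sequencing read proportions per bin multiplied by bin number.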

Variant	protein stability index
T12H	1.68
T12V	1.65
T12D	2.01
T12F	2.1
T12K	1.98
T12M	1.43
T12C	1.84
T12Q	2.04
T12R	2.37
T12S	1.87
T12I	1.92
T12L	2.23
T12W	2.22
T12Y	1.5
T12E	1.8
T12G	1.74
T12N	2.44
T12A	2.07
T12P	2.4
F18P	2.19
F18G	2.29
F18R	2.15
F18L	1.96
F18K	1.74

Variant	protein stability index
F18T	1.95
F18S	2.37
F18Q	2.1
F18D	2.27
F18C	3.74
F18M	1.82
F18I	2.17
F18A	1.86
F18H	2.76
F18N	2.09
F18Y	1.91
F18V	1.88
F18E	2.22
F18W	2.07
K10P	2.03
K10F	1.76
K10W	2.38
K10A	1.75
K10S	1.58
K10E	2.04
K10Q	2.36
K10Y	1.93
K10M	1.97
K10C	2.44

Variant	protein stability index
K10N	1.91
K10T	1.78
K10I	1.72
K10R	1.81
K10D	2.68
K10V	2.05
K10L	1.86
K10G	2.06
K10H	2.2
E6A	2.15
E6P	2.68
E6H	1.71
E6L	2.18
E6K	1.9
E6V	2.08
E6G	1.88
E6R	2.34
E6Y	2.64
E6I	1.69
E6Q	2.34
E6F	1.62
E6C	2.44
E6N	1.67
E6M	2.37

Variant	protein stability index
E6W	1.58
E6T	2.26
E6S	2.39
E6D	2.37
C14L	2.73
C14W	2.39
C14N	3.19
C14M	3.43
C14Q	3.45
C14G	3.13
C14Y	2.52
C14T	3.37
C14P	2.83
C14E	4.05
C14K	3.48
C14I	2.98
C14V	3.3
C14F	2.66
C14H	2.84
C14R	3.17
C14A	3.07
C14D	2.96
C14S	3.01
P8W	1.46

Variant	protein stability index
P8E	2.82
P8N	1.96
P8L	1.98
P8D	2.44
P8F	1.38
P8G	2.44
P8H	2.06
P8Q	2.09
P8S	1.78
P8V	1.91
P8T	1.9
P8Y	1.64
P8A	2.1
P8I	1.63
P8C	2.51
P8M	2.3
P8K	2.06
P8R	1.99
H20R	1.94
H20G	1.92
H20P	1.82
H20D	1.84
H20N	1.95
H20W	2.28

Variant	protein stability index
H20T	2.11
H20M	1.98
H20V	1.89
H20S	2.32
H20C	2.03
H20Y	2.13
H20E	2.04
H20A	2.06
H20L	2.03
H20K	1.8
H20F	1.67
H20Q	2.26
H20I	2.04
S22E	2.23
S22C	3.19
S22N	2.33
S22L	1.94
S22W	1.44
S22V	1.91
S22A	1.83
S22G	2.14
S22Q	2.01
S22I	1.9
S22T	1.92

Variant	protein stability index
S22K	2.46
S22F	2
S22D	2.11
S22H	2.4
S22P	1.79
S22Y	1.63
S22M	2
S22R	2.4
N17M	1.76
N17D	1.7
N17R	2.09
N17I	2.26
N17A	1.99
N17Q	1.91
N17E	2.4
N17W	2.42
N17S	2.02
N17C	2.25
N17T	1.6
N17H	2.15
N17G	2.12
N17Y	1.91
N17K	2.26
N17L	1.98

Variant	protein stability index
N17V	1.92
N17P	1.81
N17F	2.07
G15K	2.13
G15E	1.76
G15D	2.1
G15A	1.68
G15V	1.57
G15I	2.13
G15C	1.59
G15P	2.57
G15H	2.23
G15Y	1.82
G15F	2.17
G15L	1.97
G15Q	2.15
G15W	1.84
G15T	1.79
G15N	1.87
G15M	1.9
G15R	1.75
G15S	1.62
R21E	2.69
R21Q	1.94

Variant	protein stability index
R21C	2.46
R21T	2.11
R21P	2.08
R21L	1.64
R21F	2.01
R21W	1.68
R21A	2.59
R21H	2.21
R21N	2.19
R21M	2.22
R21S	1.96
R21K	2.13
R21D	3.15
R21Y	1.96
R21I	1.92
R21G	2.3
R21V	1.98
C11I	2.56
C11S	3.36
C11Y	2.42
C11A	2.67
C11T	2.91
C11L	2.9
C11Q	3.24

Variant	protein stability index
C11W	2.04
C11G	3.59
C11N	3.16
C11V	2.51
C11R	2.81
C11F	2.06
C11P	3.02
C11E	3.97
C11D	3.87
C11M	2.78
C11K	2.92
C11H	3.13
E16M	1.86
E16H	1.87
E16P	1.94
E16K	1.59
E16N	1.77
E16G	1.68
E16S	1.99
E16Q	2.46
E16D	1.93
E16C	1.98
E16Y	2.08
E16R	2.03

Variant	protein stability index
E16F	2.3
E16W	1.77
E16A	1.8
E16T	2.51
E16L	1.5
E16I	1.83
E16V	2.17
L13I	2.44
L13E	3.3
L13W	1.88
L13Q	2.16
L13C	2.81
L13S	2.64
L13G	2.42
L13V	2.14
L13M	1.76
L13K	2.18
L13R	1.56
L13N	3.03
L13F	2.2
L13D	3.21
L13P	2.31
L13T	2.57
L13Y	2.04

Variant	protein stability index
L13H	2.06
L13A	2.18
Y9S	2.38
Y9V	2.33
Y9Q	1.84
Y9L	1.79
Y9D	2.44
Y9E	2.4
Y9I	1.52
Y9H	2.61
Y9N	2.1
Y9P	2.04
Y9A	2.15
Y9M	1.69
Y9R	2.14
Y9K	2.45
Y9C	3.37
Y9W	1.72
Y9T	2.33
Y9G	1.6
Y9F	1.96
K7F	1.85
K7R	2.04
K7S	2.2

Variant	protein stability index
K7W	2.03
K7C	3.39
K7L	1.86
K7M	1.97
K7E	2.12
K7T	1.94
K7P	1.62
K7Q	1.71
K7G	2.31
K7D	2.02
K7I	1.99
K7V	2.37
K7N	1.9
K7A	2.04
K7H	2.19
K7Y	1.73
N23F	2.23
N23E	2.31
N23C	3.48
N23H	1.96
N23D	1.88
N23A	2.28
N23M	2.03
N23I	2.32

Variant	protein stability index
N23L	1.69
N23G	2.06
N23K	2.17
S19P	1.77
S19V	2.51
S19L	1.81
S19E	2.29
S19F	2.12
S19M	1.96
S19C	2.06
S19R	2.01
S19Q	2.09
S19H	1.48
S19Y	1.97
S19W	1.74
S19A	2.21
S19G	1.96
S19K	1.66
S19N	2.08
S19I	2.81
S19T	1.91
S19D	2.21
